Data reported in article PMC4075454.

What was measured:
WDR5 [1] = molecular target: WDR5 (UniProt P61964); assay: peptide pull-down, silver stain, MALDI-TOF identification; details: reference: unmodified H3 peptide; sites T11
WDR5 [2] = molecular target: WDR5 (UniProt P61964); assay: biotin-peptide streptavidin pull-down, anti-GST blot; details: reference: unmodified H3 peptide; sites T11

Question: Which “binding against the reference” value (WDR5 [1]) does the source give for “histone H3 (synthetic tail peptides) 1-21 (from UniProt P68431) H3T11P peptide” here?
Answer: stronger

Question: What about the “binding against the reference” value (WDR5 [2]) of the same substance?
Answer: stronger
